Results reported in patent US20060251652A1 (APPLIED MOLECULAR EVOLUTION, published 2006).

Target: T1, human CD20 (human, UniProt P11836 1-297)
T1 construct: whole, on cells; Always presented on cells (fixed Ramos cells in ELISA; live cells in flow cytometry and KinExA-type assays); also called hCD20; Bp35
T1 sequence (looked up): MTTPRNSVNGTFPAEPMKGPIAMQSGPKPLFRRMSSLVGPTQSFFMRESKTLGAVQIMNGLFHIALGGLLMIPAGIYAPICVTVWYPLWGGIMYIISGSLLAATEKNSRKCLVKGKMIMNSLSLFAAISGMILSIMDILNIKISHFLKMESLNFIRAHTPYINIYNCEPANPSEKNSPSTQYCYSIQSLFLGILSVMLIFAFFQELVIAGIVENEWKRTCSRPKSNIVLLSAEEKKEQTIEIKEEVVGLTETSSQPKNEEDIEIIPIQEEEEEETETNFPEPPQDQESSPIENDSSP
Experiment: ELISA on formalin-fixed Ramos cells, off-rate format: after the Fab incubation the plate stood overnight in PBS/BSA before anti-His6 peroxidase, OD 450
Experimental: Ramos cells (ATCC) were grown in RPMI 1640 containing 10% heat inactivated Fetal Bovine Serum. […] Media was gently aspirated and […] of aqueous buffered zinc formalin (Anatech, Ltd.) was added to each well for 15 minutes at room temperature. Z-fix was removed and the plate was washed with phosphate-buffered saline (PBS) containing 0.05% Tween 20. The plate was blocked for 1 hour with 1% bovine serum albumin (BSA) in PBS. Dilutions of Fab or IgG were incubated with the fixed and blocked Ramos cells for 1 hour at room temperature. The plate was washed 3× with PBS 0.05% Tween […] of anti-His6 Peroxidase Mouse Monoclonal Antibody (Roche Diagnostics Corporation) at a 1:500 dilution were added to the wells and incubated 1 hour at room temperature. The plate was washed as above and developed with tetramethyl benzidine, and the reaction was stopped with 5N H₂SO₄. The plate absorbance was read at OD 450 nm. Dilutions of Fab and conjugate were in 1% BSA/PBS.
IgG assays were performed similarly except IgG bound was detected with goat anti-human IgG-HRP. To compare antibody off-rate, after incubation with Fab or IgG the plates were incubated over night in PBS/BSA, before proceeding with the second antibody step. To compare antibody on-rate, incubation steps for Fab/IgG binding and with the second antibody were both of 5 minutes duration.

B1: AME 33 Fab (Fab, V domains shown)
VH: EVQLVQSGAEVKKPGESLKISCKGSGRTFTSYNMHWVRQMPGKGLEWMGAIYPLTGDTSYNQKSKLQVTISADKSISTAYLQWSSLKASDTAMYYCARSTYVGGDWQFDVWGKGTTVTVSS
VL: EIVLTQSPGTLSLSPGERATLSCRASSSVPYIHWYQQKPGQAPRLLIYATSALASGIPDRFSGSGSGTDFTLTISRLEPEDFAVYYCQQWLSNPPTFGQGTKLEIK
notes: Fab
EC50 (read off the curve): ~0.3 µg/mL
